T1: human TL1A (human, UniProt O95150 72-251)
T1 sequence (looked up): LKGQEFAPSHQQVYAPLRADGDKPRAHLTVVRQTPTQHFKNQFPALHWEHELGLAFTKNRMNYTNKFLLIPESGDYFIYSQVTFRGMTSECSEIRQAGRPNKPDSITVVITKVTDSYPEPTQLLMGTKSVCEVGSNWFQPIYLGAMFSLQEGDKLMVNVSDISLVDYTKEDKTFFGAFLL


What was measured:
[1] = biological target: mouse DR3.Fc (mouse); assay: SPR
[2] = biological target: T1, human TL1A; assay: ELISA
[3] = biological target: recombinant mouse Galectin-9 (mouse, UniProt O08573 1-353); assay: SPR
[4] = biological target: recombinant human Galectin-9 (human, UniProt O00182 1-355); assay: SPR
recombinant human Galectin-9 (human, UniProt O00182 1-355), sequence (O00182 whole entry): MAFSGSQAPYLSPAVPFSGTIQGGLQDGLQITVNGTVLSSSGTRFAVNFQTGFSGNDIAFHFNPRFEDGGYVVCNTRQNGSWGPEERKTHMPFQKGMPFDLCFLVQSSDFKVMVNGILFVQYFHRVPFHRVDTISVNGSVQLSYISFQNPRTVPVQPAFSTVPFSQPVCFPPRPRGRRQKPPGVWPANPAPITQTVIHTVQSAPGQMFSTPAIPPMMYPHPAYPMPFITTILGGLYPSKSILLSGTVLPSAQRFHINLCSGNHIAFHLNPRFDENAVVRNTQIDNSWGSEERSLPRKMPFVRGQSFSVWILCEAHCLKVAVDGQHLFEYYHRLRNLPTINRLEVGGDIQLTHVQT

recombinant mouse Galectin-9 (mouse, UniProt O08573 1-353), sequence (O08573 whole entry): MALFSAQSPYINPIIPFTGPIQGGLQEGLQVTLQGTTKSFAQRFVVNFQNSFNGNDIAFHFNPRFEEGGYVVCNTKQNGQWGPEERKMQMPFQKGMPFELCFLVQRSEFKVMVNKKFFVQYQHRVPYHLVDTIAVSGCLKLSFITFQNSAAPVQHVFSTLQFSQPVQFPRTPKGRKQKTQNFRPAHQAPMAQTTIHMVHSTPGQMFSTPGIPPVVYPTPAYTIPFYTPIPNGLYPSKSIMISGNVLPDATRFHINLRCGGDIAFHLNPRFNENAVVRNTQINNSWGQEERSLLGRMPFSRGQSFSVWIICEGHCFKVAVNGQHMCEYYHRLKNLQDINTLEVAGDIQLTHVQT
recombinant mouse Galectin-9 (from UniProt O08573 1-353) (natural protein), sequence (O08573 whole entry): as above
recombinant human Galectin-9 (from UniProt O00182 1-355) (natural protein), sequence (O00182 whole entry): as the sequence (O00182 whole entry) above

Kd [1] [nM]	binding result [2]	Kd [3] [nM]	Kd [4] [nM]	Molecule
180	–	–	–	recombinant human Galectin-9 (from UniProt O00182 1-355) (natural protein)
360	–	–	–	recombinant mouse Galectin-9 (from UniProt O08573 1-353) (natural protein)
–	binds	~440	~430	human DR3.Fc (fusion protein containing the extracellular region of human DR3) (Fc fusion, UniProt Q93038 25-199, looked up) QGGTRSPRCDCAGDFHKKIGLFCCRGCPAGHYLKAPCTEPCGNSTCLVCPQDTFLAWENHHNSECARCQACDEQASQVALENCSAVADTRCGCKPGWFVECQVSQCVSSSPFYCQPCLDCGALHRHTRLLCSRRDTDCGTCLPGFYEHGDGCVSCPTSTLGSCPERCAAVCGWRQ
–	binds	–	–	de-glycosylated human DR3.Fc (PNGase F treated) (Fc fusion, UniProt Q93038 25-199, looked up, N-linked sugars removed by PNGase F) QGGTRSPRCDCAGDFHKKIGLFCCRGCPAGHYLKAPCTEPCGNSTCLVCPQDTFLAWENHHNSECARCQACDEQASQVALENCSAVADTRCGCKPGWFVECQVSQCVSSSPFYCQPCLDCGALHRHTRLLCSRRDTDCGTCLPGFYEHGDGCVSCPTSTLGSCPERCAAVCGWRQ
